In one experiment the target is BO2C11 Fab fragment. Description: SPR, BO2C11 Fab on chip, 25 C, 1:1 model.
Settings: not given
A word on the Kd: it is the free concentration of one partner at which half of the binding sites on the other are occupied at equilibrium, for simple one-to-one binding. By koff is commonly meant the first-order rate constant of dissociation. The low end stands for slow dissociation, the high end for fast dissociation. The term kon denotes a measure of how fast the partners come together. In the case of “FVIII C2 domain protein V2223M (from UniProt P00451 2189-2351)”, the Kd was 6.3 pM, the koff was 3.6e-05 s⁻¹ and the kon is 5.7e+06 M⁻¹ s⁻¹.
Substance “FVIII C2 domain protein Q2316A (from UniProt P00451 2189-2351)” registered a Kd of 25 pM, a koff of 0.00032 s⁻¹ and a kon of 1.3e+07 M⁻¹ s⁻¹.
“FVIII C2 domain protein L2212A (from UniProt P00451 2189-2351)” registered a Kd of 1.9 pM, a koff of 4.4e-05 s⁻¹ and a kon of 2.3e+07 M⁻¹ s⁻¹.
Take “FVIII C2 domain protein A2201P (from UniProt P00451 2189-2351)”: the Kd is 19 pM, the koff was 0.00016 s⁻¹ and the kon came out at 8.4e+06 M⁻¹ s⁻¹.
On the same counts, the results for “FVIII C2 domain protein Q2311A (from UniProt P00451 2189-2351)” are 3 pM, 6.8e-05 s⁻¹ and 2.3e+07 M⁻¹ s⁻¹.
Take “FVIII C2 domain protein Q2222A (from UniProt P00451 2189-2351)”: the dissociation constant Kd was 5.3 pM, the koff was found to be 3.9e-05 s⁻¹ and the kon was found to be 7.4e+06 M⁻¹ s⁻¹.
The corresponding values for “FVIII C2 domain protein Q2213A (from UniProt P00451 2189-2351)” are 4.4 pM, 6.1e-05 s⁻¹ and 1.4e+07 M⁻¹ s⁻¹.
On the same counts, the results for “FVIII C2 domain protein W2313Y (from UniProt P00451 2189-2351)” are 11 pM, 8.7e-05 s⁻¹ and 8.2e+06 M⁻¹ s⁻¹.
The corresponding values for “FVIII C2 domain protein T2253A (from UniProt P00451 2189-2351)” are 9.8 pM, 5.2e-05 s⁻¹ and 5.3e+06 M⁻¹ s⁻¹.
“FVIII C2 domain protein E2181A (from UniProt P00451 2189-2351)” had a Kd of 8.6 pM, a koff of 0.00019 s⁻¹ and a kon of 2.2e+07 M⁻¹ s⁻¹.
“FVIII C2 domain protein L2302A (from UniProt P00451 2189-2351)” displayed a Kd of 2.4 pM, a koff of 5.7e-05 s⁻¹ and a kon of 2.4e+07 M⁻¹ s⁻¹.
The corresponding values for “FVIII C2 domain protein Q2270A (from UniProt P00451 2189-2351)” are 1.5 pM, 0.00018 s⁻¹ and 1.2e+08 M⁻¹ s⁻¹.
Regarding “FVIII C2 domain protein K2227A (from UniProt P00451 2189-2351)”, the Kd was determined as 3.4 pM, the koff was found to be 6.4e-05 s⁻¹ and the kon was found to be 1.9e+07 M⁻¹ s⁻¹.
On the same counts, the results for “FVIII C2 domain protein N2277A (from UniProt P00451 2189-2351)” are 5 pM, 6e-05 s⁻¹ and 1.2e+07 M⁻¹ s⁻¹.
The corresponding values for “FVIII C2 domain protein K2279A (from UniProt P00451 2189-2351)” are 26 pM, 0.00019 s⁻¹ and 7.2e+06 M⁻¹ s⁻¹.
On the same counts, the results for “FVIII C2 domain protein L2273A (from UniProt P00451 2189-2351)” are 15 pM, 0.00017 s⁻¹ and 1.1e+07 M⁻¹ s⁻¹.
“FVIII C2 domain protein E2327A (from UniProt P00451 2189-2351)”: the Kd was found to be 2.6 pM, the koff is 5.4e-05 s⁻¹ and the kon stood at 2.1e+07 M⁻¹ s⁻¹.
With “FVIII C2 domain protein S2173I (from UniProt P00451 2189-2351)”, the Kd was 7.3 pM, the koff turned out to be 0.00011 s⁻¹ and the kon is 1.5e+07 M⁻¹ s⁻¹.
With “FVIII C2 domain protein K2227Q (from UniProt P00451 2189-2351)”, the Kd is 2.9 pM, the koff worked out at 2e-05 s⁻¹ and the kon came out at 6.8e+06 M⁻¹ s⁻¹.
For the substance “FVIII C2 domain protein H2309A (from UniProt P00451 2189-2351)”, the Kd is 1.9 pM, the koff is 2.9e-05 s⁻¹ and the kon came to 1.5e+07 M⁻¹ s⁻¹.
The corresponding values for “FVIII C2 domain protein N2224A (from UniProt P00451 2189-2351)” are 2.7 pM, 8.6e-05 s⁻¹ and 3.2e+07 M⁻¹ s⁻¹.
The corresponding values for “FVIII C2 domain protein H2211A (from UniProt P00451 2189-2351)” are 5.4 pM, 3.8e-05 s⁻¹ and 7.1e+06 M⁻¹ s⁻¹.
On the same counts, the results for “FVIII C2 domain protein T2202A (from UniProt P00451 2189-2351)” are 5.8 pM, 3.5e-05 s⁻¹ and 6e+06 M⁻¹ s⁻¹.
The substance “FVIII C2 domain protein N2225A (from UniProt P00451 2189-2351)” showed a Kd of 2.4 pM, a koff of 3.9e-05 s⁻¹ and a kon of 1.6e+07 M⁻¹ s⁻¹.
On the same counts, the results for “FVIII C2 domain protein K2249A (from UniProt P00451 2189-2351)” are 6.1 pM, 3.7e-05 s⁻¹ and 6.1e+06 M⁻¹ s⁻¹.
Turning to “FVIII C2 domain protein T2272A (from UniProt P00451 2189-2351)”, the Kd was 4.2 pM, the off-rate (koff) was determined as 5.4e-05 s⁻¹ and the kon came to 1.3e+07 M⁻¹ s⁻¹.
On the same counts, the results for “FVIII C2 domain protein R2307Q (from UniProt P00451 2189-2351)” are 4.7 pM, 9e-05 s⁻¹ and 1.9e+07 M⁻¹ s⁻¹.
In the case of “FVIII C2 domain protein P2300L (from UniProt P00451 2189-2351)”, the Kd came to 5.3 pM, the koff was 9.5e-05 s⁻¹ and the kon is 1.8e+07 M⁻¹ s⁻¹.
On the same counts, the results for “FVIII C2 domain protein K2207A (from UniProt P00451 2189-2351)” are 13 pM, 5.9e-05 s⁻¹ and 4.6e+06 M⁻¹ s⁻¹.
Substance “FVIII C2 domain protein R2304H (from UniProt P00451 2189-2351)” gave a Kd of 9.2 pM, a koff of 9.2e-05 s⁻¹ and a kon of 1e+07 M⁻¹ s⁻¹.
The corresponding values for “FVIII C2 domain protein H2315A (from UniProt P00451 2189-2351)” are 4.9 pM, 7.3e-05 s⁻¹ and 1.5e+07 M⁻¹ s⁻¹.
On the same counts, the results for “FVIII C2 domain protein H2269A (from UniProt P00451 2189-2351)” are 7.7 pM, 0.00017 s⁻¹ and 2.2e+07 M⁻¹ s⁻¹.

The next experiment concerns CD4+ T cells. Kind of experiment: Staining with peptide-loaded DR1001 tetramers (tetramer guided epitope mapping). Type of experiment: cell-based, human. To be noted: DR1001 tetramers; severe HA inhibitor subject 56A; day 18. The procedure: (§1) a. Added 1.5 μl PE-labeled tetramers (final concentration 10 μg/ml. b. Mixed by shaking the rack containing the FACS tubes. c. Incubated the cells with tetramer for 1 hr in the 37 C 5% CO2 incubator.
(§2) a. Incubated tubes in the refrigerator for >5 min. b. Made an antibody cocktail consisting of 3.75 μl anti-CD4-APC, 3.75 μl anti-CD3-PerCP, 3.75 μl anti-CD25-FITC per sample. 3.75 ul×50=187.5 ul. c. Added 3.75 μl control antibodies to 75 μl control cells (1 —unstained; 2—anti-CD4-FITC; 3—anti-CD4-PE; 4—anti-CD3-PerCP; 5—anti-CD4-APC). d. Added 11.25 μl antibody cocktail to each sample. e. Incubated all samples at 4 C (put in the refrigerator) for 20 min in the dark.
(§3) a. Added 2 ml cold FACS wash buffer to each tube. b. Centrifuged at 1200 rpm, 10 min, 4 C, low brake in the Beckman Coulter Allegra 6KR centrifuge. c. Decanted the supernatant. d. Resuspended in 200 μl FACS wash buffer. e. Stored tubes in a covered ice container for FACS analysis.
(§4) a. Added 1.5 μl PE-labeled tetramers (final concentration 10 μg/ml). b. Mixed by shaking the rack containing the FACS tubes. c. Incubated the cells with tetramer for 1 hr in the 37 C 5% CO2 incubator.
(§5) a. Incubated tubes in the refrigerator for >5 min. b. Made an antibody cocktail consisting of 3.75 μl anti-CD4-APC, 3.75 μl anti-CD3-PerCP, 3.75 μl anti-CD25-FITC per sample. 3.75 ul×55=206.25 ul (For the CD25-FITC Ab, I opened a new vial (Lot #E016414)—taking 100 ul from this lot.) c. Added 3.75 μl control antibodies to 75 μl control cells (1 —unstained; 2—anti-CD4-FITC; 3—anti-CD4-PE; 4—anti-CD3-PerCP; 5—anti-CD4-APC). d. Added 11.25 μl antibody cocktail to each sample. e. Incubated all samples at 4 C (put in the refrigerator) for 20 min in the dark.
(§6) a. Added 2 ml cold FACS wash buffer to each tube. b. Centrifuged at 1200 rpm, 10 min, 4 C, low brake in the Beckman Coulter Allegra 6KR centrifuge. c. Decanted the supernatant. d. Resuspended in 250 μl FACS wash buffer. e. Stored tubes in a covered ice container for FACS analysis.
Regarding SQDGHQWTLFFQNGKVKVFQ [Mutant C2-13], the “Positive (individual peptide loaded tetramer staining)” value (from here on “Positive”) is reported as “no”.
Same read-out and setting: next, FSWIKVDLLAPMIIHGIKTQ [Mutant C1-11]: “no”.
On the same count and under the same terms, next, KEFLISSSQDGHQWTLFFQN [Mutant C2-12]: “no”; KFSSLYISQFIIMYSLDGKK [Mutant C1-14]: “no”.
On the same count and under the same terms, next, KGVKHLKDFPILPGEIFKYK [Mutant A2-16]: “no”.
In the case of KVFQGNQDSFTPVVNSLDPP [Mutant C2-15], the “Positive” value was “no”.
Same read-out and setting: next, LFFQNGKVKVFQGNQDSFTP [Mutant C2-14]: “no”.
The same measure, in the same setting: next, SLLTSMYVKEFLISSSQDGH [Mutant C2-11]: “no”.

A further experiment has as its system CD4+ T cells. Description: Staining with peptide-loaded DR0101 tetramers (tetramer guided epitope mapping). It counts as cell-based, human. To be noted: DR0101 tetramers; severe HA inhibitor subject 56A; day 18.
Text: T-cell clones were obtained from blood samples from both brothers by staining CD4+ cells with fluorescent DR0101 tetramers that were loaded with peptide FVIII2194-2213, followed by single-cell sorting and expansion. Clones were expanded by stimulation with irradiated peripheral blood mononuclear cells (PBMCs) from an HLA-mismatched individual plus phytohemagglutinin (Remel, Lenexa, Kans.) in the presence of human IL-2 (Hemagen Diagnostics, Inc., Columbia, Md.). Clonality was confirmed by tetramer staining, multiplex PCR and sequencing of the VDJ region in the PCR products.
as §1, §2, §3, §4, §5, §6
As to SDAQITASSYFTNMFATWSP [Mutant C2-3B], the “Positive” value was “weak”.
The same measure, in the same setting: the result for FSWIKVDLLAPMIIHGIKTQ [Mutant C1-11] reads “no”; that for KFSSLYISQFIIMYSLDGKK [Mutant C1-14], “no”.
As for DLNSCSMPLGMESKAISDAQ [Mutant C2-1], the “Positive” value is “no”.
The same measure, in the same setting: next, KGVKHLKDFPILPGEIFKYK [Mutant A2-16]: “no”; LGMESKAISDAQITASSYFT [Mutant C2-2]: “no”.

For the origin of these results see patent US20130116182A1, “Factor VIII B Cell Epitope Variants Having Reduced Immunogenicity” (priority 2009, published 2013).
